Test results published in patent US20170355766A1.

Experiments:
Test in all cases: SPR (Biacore)
[1] = molecular target: human FcγRIIb receptor protein (R&D Systems) (human) (UniProt P31994)
FcγRIIaR (human) = FcγRIIaR (human) (UniProt P12318)
[2] = molecular target: human V158 FcγRIIIa receptor protein (6xHis and GST tags) (human) (UniProt P08637)
[3] = molecular target: human H131 FcγRIIa receptor protein (6xHis and GST tags) (human) (UniProt P12318)
[4] = molecular target: human FcγRI receptor protein (R&D Systems) (human) (UniProt P12314)
FcγRIIIaF (human) = FcγRIIIaF (human) (UniProt P08637)
Sequence of FcγRIIIaF (human) (P08637 17-208 limits assumed): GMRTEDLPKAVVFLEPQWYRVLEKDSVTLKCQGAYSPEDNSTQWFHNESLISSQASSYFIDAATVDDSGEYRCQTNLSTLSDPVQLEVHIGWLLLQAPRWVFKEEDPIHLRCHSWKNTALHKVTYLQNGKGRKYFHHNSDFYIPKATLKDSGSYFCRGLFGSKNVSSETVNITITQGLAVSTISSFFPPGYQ

Sequence of FcγRIIaR (human) (P12318 34-217 H167R limits assumed): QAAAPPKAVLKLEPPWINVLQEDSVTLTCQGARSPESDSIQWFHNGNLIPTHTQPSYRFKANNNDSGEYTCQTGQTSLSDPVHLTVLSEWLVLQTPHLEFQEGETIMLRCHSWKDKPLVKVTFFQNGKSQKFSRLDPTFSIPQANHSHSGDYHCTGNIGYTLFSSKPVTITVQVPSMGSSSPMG
Sequence of human FcγRIIb receptor protein (R&D Systems) (human) (P31994 46-217 limits assumed): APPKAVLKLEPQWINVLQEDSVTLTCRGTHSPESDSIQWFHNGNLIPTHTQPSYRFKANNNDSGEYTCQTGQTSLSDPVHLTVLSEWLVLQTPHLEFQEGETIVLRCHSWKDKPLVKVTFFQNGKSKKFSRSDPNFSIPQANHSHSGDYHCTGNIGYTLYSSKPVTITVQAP
Sequence of human V158 FcγRIIIa receptor protein (6xHis and GST tags) (human) (P08637 17-208 F176V limits assumed): as the sequence (P08637 17-208 limits assumed) above, with F160V counted along it
Sequence of human FcγRI receptor protein (R&D Systems) (human) (P12314 16-288 limits assumed): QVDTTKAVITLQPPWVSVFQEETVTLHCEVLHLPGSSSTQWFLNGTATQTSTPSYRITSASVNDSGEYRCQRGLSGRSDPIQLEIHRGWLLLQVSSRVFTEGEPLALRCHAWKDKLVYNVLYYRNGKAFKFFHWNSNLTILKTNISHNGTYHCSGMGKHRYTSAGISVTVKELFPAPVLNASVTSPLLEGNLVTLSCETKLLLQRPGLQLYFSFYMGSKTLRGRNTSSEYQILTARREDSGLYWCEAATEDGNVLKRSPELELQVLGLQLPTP
Sequence of human H131 FcγRIIa receptor protein (6xHis and GST tags) (human) (P12318 34-217 limits assumed): as the sequence (P12318 34-217 H167R limits assumed) above, with R134H counted along it

Substance	Fold FcγRIIb [1] [fold]	Fold FcγRIIaR (FcγRIIaR (human)) [fold]	further results
G236F (antibody)	0.0147	0.00859	–
G236K (antibody)	0.0147	0.00859	–
G236R (antibody)	0.0147	0.00859	–
G236S (antibody)	–	–	Fold FcγRIIIaV [2]: 0.00367 fold
G236T (antibody)	0.00225	–	–
G236V (antibody)	0.0147	–	–
G237E (antibody)	0.0147	0.00859	–
G237K (antibody)	0.0147	0.00859	–
G237P (antibody)	0.0147	0.00859	–
L234K (antibody)	0.0147	0.00859	–
L235N (antibody)	0.147	–	–
L235P (antibody)	0.00585	–	–
L235S (antibody)	0.0147	0.00859	–
S267E/A327D (antibody)	–	–	Fold FcγRIIIaV [2]: 0.00199 fold
S267E/A327E (antibody)	–	–	Fold FcγRIIIaV [2]: 0.00894 fold
S267E/H268E/L328F (antibody)	–	–	Fold FcγRIIIaV [2]: 0.092 fold
anti-CD19 IgG1/2 ELLGG antibody with S267E/L328F	221	269	Fold FcγRIIaH [3]: 0.993 fold; Fold FcγRI [4]: 2.35 fold
anti-CD19 WT IgG1 antibody (HuAM4G7 Fv, native human IgG1 Fc)	–	–	Fold FcγRIIIaF (FcγRIIIaF (human)): 1 fold
